Source: publication PMC9489553, “Biochemical and clinical studies of putative allergens to assess what distinguishes them from other non-allergenic proteins in the same family” (Transgenic Research, 2022)

B1: Cladosporium herbarum mannitol dehydrogenase (enzyme)
chain: MPGQQATKHESLLDQLSLKGKVVVVTGASGPKGMGIEAARGCAEMGAAVAITYASRAQGAEENVKELEKTYGIKAKAYKCQVDSYESCEKLVKDVVADFGQIDAFIANAGATADSGILDGSVEAWNHVVQVDLNGTFHCAKAVGHHFKERGTGSLVITASMSGHIANFPQEQTSYNVAKAGCIHMARSLANEWRDFARVNSISPGYIDTGLSDFVPKETQQLWHSMIPMGRDGLAKELKGAYVYFASDASTYTTGADLLIDGGYTTR
notes: codon-optimised synthetic gene in pET-28a; Crystallised in complex with NADP+; also called ChMDH; C. herbarum MDH; source: E. coli BL21 (DE3), purified (Ni-NTA, size-exclusion chromatography); not shown: His-tag, N-terminal, cleaved
B2: Cladosporium herbarum (aka Davidiella tassiana) aldehyde dehydrogenase (enzyme)
chain: MTSVQLETPHSGKYEQPTGLFINNEFVKGQEGKTFDVINPSDESVITQVHEATEKDVDIAVAAARKAFEGSWRQETPENRGKLLNNLANLFEKNIDLLAAVESLDNGKAISMAKGDISMCVGCLRYYGGWADKITGKVIDTTPDTFNYVKKEPIGVCGQIIPWNFPLLMWAWKIGPAIACGNTVVLKTAEQTPLGGLVAASLVKEAGFPPGVINVISGFGKVAGAALSSHMDVDKVAFTGSTVVGRTILKAAASSNLKKVTLELGGKSPNIVFEDADIDNAISWVNFGIFFNHGQCCCAGSRVYVQESIYDKFVQKFKERAQKNVVGDPFAADTFQGPQVSKVQFDRIMEYIQAGKDAGATVETGGKRKGDKGYFIEPTIFSNVTEDMKIVKEEIFGPVCSIAKFKTKEDAIKLGNASTYGLAAAVHTKNLNTAIEVSNALKAGTVWVNTYNTLHHQMPFGGYKESGIGRELGEDALANYTQTKTVSIRLGDALFG
notes: aldehyde dehydrogenase of Cladosporium herbarum (aka Davidiella tassiana), GenBank CAA55072.2; codon-optimised synthetic gene in pET-28a; Apoenzyme in the crystal; also called ChALDH; C. herbarum ALDH; source: E. coli BL21 (DE3), purified (Ni-NTA, size-exclusion chromatography); not shown: His-tag, N-terminal, cleaved

Experiments:
[1] = target: the molecule itself; assay: crystal structure; ChMDH with 5 mM NADP+, hanging drop at 4 °C, 25% PEG-1500, sodium propionate/sodium cacodylate/BIS-TRIS propane pH 7.0; 2.04 Å
[2] = target: the molecule itself; assay: crystal structure; ChALDH apoenzyme, hanging drop at 4 °C, 20% PEG-100, 100 mM sodium/potassium phosphate pH 6.2, 200 mM NaCl; 3.18 Å

Protein | stoichiometry N [1] | stoichiometry N [2]
B1 | 4 | –
B2 | – | 4
